Consider two molecules from PMC5566995, “Development and Characterization of a Camelid Single Domain Antibody–Urease Conjugate That Targets Vascular Endothelial Growth Factor Receptor 2” (Frontiers in Immunology, 2017).

Broadly, the EC50 is the concentration needed to bring the measured effect to its halfway point.

In test [1] the target is T1, recombinant VEGFR2/Fc (Homo sapiens (assumed), UniProt P35968).
T1 construct: vascular endothelial growth factor receptor 2 (VEGFR2), recombinant Fc fusion protein; Fc fusions of this supplier usually hold the extracellular domain (surmise); also called vascular endothelial growth factor receptor 2 Fc fusion; source: bought: R&D Systems
T1 sequence (P35968 20-764): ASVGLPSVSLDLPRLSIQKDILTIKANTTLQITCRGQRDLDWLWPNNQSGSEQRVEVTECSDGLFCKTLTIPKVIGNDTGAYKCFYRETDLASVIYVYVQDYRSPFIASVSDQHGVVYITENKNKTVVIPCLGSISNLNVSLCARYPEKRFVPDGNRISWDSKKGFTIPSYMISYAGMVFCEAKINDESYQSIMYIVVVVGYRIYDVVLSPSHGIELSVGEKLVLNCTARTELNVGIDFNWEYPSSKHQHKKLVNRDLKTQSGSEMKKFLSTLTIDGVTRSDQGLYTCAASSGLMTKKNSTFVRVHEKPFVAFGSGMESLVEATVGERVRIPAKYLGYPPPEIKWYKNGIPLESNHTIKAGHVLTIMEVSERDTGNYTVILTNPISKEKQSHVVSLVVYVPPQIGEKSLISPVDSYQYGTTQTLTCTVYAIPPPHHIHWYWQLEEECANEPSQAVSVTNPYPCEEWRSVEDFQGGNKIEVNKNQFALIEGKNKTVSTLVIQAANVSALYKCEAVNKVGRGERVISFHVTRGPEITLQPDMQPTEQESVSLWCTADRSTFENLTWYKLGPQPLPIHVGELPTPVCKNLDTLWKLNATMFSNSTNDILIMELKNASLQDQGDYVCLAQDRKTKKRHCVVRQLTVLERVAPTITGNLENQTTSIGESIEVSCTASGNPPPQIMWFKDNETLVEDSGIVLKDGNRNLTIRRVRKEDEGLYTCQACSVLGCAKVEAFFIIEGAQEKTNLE
As to the kind of experiment: ELISA; VEGFR/Fc (0.25 ug/mL) captured on plates coated with goat anti-human IgG-Fc; dilutions of antibody-urease conjugate or biotinylated antibody in 0.1% BSA/T-TBS, room temperature, 2 h; conjugates detected with rabbit anti-urease and goat anti-rabbit-AP, biotinylated antibody with streptavidin-alkaline phosphatase; A405. The note with it: both partners purified.

The target of test [2] is T2, VEGFR2 expressed by 293/KDR cells (Homo sapiens (assumed; KDR), UniProt P35968).
T2 construct: vascular endothelial growth factor receptor 2 (VEGFR2, KDR) expressed on 293/KDR cells; source: 293/KDR cells, on the cell surface
T2 sequence (P35968 20-1356): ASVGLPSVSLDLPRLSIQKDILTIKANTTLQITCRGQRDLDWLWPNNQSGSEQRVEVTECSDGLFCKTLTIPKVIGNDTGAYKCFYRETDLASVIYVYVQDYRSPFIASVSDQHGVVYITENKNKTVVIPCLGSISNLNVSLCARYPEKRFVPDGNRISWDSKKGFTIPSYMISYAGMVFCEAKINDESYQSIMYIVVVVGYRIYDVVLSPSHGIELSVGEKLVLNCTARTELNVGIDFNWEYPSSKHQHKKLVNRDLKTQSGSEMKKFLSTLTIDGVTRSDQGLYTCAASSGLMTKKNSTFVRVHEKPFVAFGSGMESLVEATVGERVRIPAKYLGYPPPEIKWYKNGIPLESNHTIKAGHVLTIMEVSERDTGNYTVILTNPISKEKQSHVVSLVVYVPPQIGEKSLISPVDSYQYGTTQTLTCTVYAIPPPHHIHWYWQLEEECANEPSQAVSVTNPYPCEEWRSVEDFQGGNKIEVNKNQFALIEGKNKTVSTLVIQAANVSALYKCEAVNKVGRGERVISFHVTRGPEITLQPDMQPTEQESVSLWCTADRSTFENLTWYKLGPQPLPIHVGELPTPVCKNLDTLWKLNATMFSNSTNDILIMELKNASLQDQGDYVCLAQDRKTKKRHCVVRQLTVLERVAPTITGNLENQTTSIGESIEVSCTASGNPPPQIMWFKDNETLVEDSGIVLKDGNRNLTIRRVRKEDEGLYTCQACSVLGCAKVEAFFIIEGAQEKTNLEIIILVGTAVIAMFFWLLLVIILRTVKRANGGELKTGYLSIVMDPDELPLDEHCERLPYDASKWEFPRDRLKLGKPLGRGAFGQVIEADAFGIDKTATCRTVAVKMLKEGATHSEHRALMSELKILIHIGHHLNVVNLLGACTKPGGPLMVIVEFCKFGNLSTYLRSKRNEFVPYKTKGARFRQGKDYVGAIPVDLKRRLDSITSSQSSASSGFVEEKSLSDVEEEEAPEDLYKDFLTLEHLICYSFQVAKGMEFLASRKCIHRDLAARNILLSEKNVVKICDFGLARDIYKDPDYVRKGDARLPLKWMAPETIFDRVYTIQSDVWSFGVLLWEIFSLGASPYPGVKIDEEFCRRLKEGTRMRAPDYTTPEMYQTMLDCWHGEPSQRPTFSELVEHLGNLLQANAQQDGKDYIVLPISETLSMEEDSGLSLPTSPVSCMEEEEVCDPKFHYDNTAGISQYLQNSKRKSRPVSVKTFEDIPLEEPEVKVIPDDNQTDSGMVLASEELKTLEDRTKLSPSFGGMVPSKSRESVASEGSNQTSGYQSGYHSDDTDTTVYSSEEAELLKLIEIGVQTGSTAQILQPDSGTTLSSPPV
Description: flow cytometry on cells; 293/KDR cells incubated with conjugate or biotinylated antibody in staining buffer (PBS with Ca2+ and Mg2+, 0.02% NaN3, 2% FBS) at 2-8 C for 1 h; conjugates detected with mouse anti-urease and AF488-anti-mouse IgG, biotinylated antibody with PE-SA; signal as ratio to 293 cells or to a biotin-isotype control. The following applies: one partner purified. A general note: In flow cytometry, cells or beads pass a laser one at a time.

The target in test [3] is T3, V21H4-DOS47 (llama | jack bean (Canavalia ensiformis)).
T3 construct: as the chain of m1; residues 1-127 of V21H4; urease, jack bean (Canavalia ensiformis), homohexamer, purified from crude urease; Antibody-urease conjugate; the standard method gives 8.7-9.2; also called V21-DOS47; V21H4-DOS47 (8.8 antibodies/urease); source: conjugate purified by diafiltration; copies: 8.8 + 6
Description: ELISA; VEGFR/Fc (0.25 ug/mL) captured on plates coated with goat anti-human IgG-Fc; dilutions of antibody-urease conjugate or biotinylated antibody in 0.1% BSA/T-TBS, room temperature, 2 h; conjugates detected with rabbit anti-urease and goat anti-rabbit-AP, biotinylated antibody with streptavidin-alkaline phosphatase; A405. The note with it: both partners purified. (In general: An ELISA detects its analyte on a solid surface through an enzyme-linked reagent.)

B1: biotin-V21H4 (VHH)
VHH: QVQLVESGGGLVQAGGSLRLSCAASGRAFSSYAMGWFRQAPGKERELVAAISWSDDSTYYANSVKGRFTISRDNAKSAVYLQMNSLKPEDTAVYYCAAHKSLQRPDEYTYWGQGTQVTVSS
notes: residues 1-127: V21 core (122 residues, ending at S122) and the first of the added C-terminal residues G123-C136; C136 is the added terminal cysteine; 136 residues in all; also called V21H4 antibody; biotinylated V21H4
Consider B1, for which the EC50 is 1.8 nM in test [1] and 1.6 nM in test [2].

B2: VEGFR1/Fc (Fc fusion, UniProt P17948 27-758, looked up)
chain: SKLKDPELSLKGTQHIMQAGQTLHLQCRGEAAHKWSLPEMVSKESERLSITKSACGRNGKQFCSTLTLNTAQANHTGFYSCKYLAVPTSKKKETESAIYIFISDTGRPFVEMYSEIPEIIHMTEGRELVIPCRVTSPNITVTLKKFPLDTLIPDGKRIIWDSRKGFIISNATYKEIGLLTCEATVNGHLYKTNYLTHRQTNTIIDVQISTPRPVKLLRGHTLVLNCTATTPLNTRVQMTWSYPDEKNKRASVRRRIDQSNSHANIFYSVLTIDKMQNKDKGLYTCRVRSGPSFKSVNTSVHIYDKAFITVKHRKQQVLETVAGKRSYRLSMKVKAFPSPEVVWLKDGLPATEKSARYLTRGYSLIIKDVTEEDAGNYTILLSIKQSNVFKNLTATLIVNVKPQIYEKAVSSFPDPALYPLGSRQILTCTAYGIPQPTIKWFWHPCNHNHSEARCDFCSNNEESFILDADSNMGNRIESITQRMAIIEGKNKMASTLVVADSRISGIYICIASNKVGTVGRNISFYITDVPNGFHVNLEKMPTEGEDLKLSCTVNKFLYRDVTWILLRTVNNRTMHYSISKQKMAITKEHSITLNLTIMNVSLQDSGTYACRARNVYTGEEILQKKEITIRDQEAPYLLRNLSDHTVAISSSTTLDCHANGVPEPQITWFKNNHKIQQEPGIILGPGSSTLFIERVTEEDEGVYHCKATNQKGSVESSAYLTVQGTSDKSNLE
notes: vascular endothelial growth factor receptor 1 (VEGFR1), recombinant Fc fusion protein; also called recombinant Fc fusion protein of VEGFR1; source: bought: R&D Systems
With B2, the binding result in test [3] is “no binding”.
